The results in this text go back to patent EP1731613A2 (DEGUSSA AG, dated 2006).

The target in the assay is T1, Zwf sub-unit (Zwf protein) of glucose 6-phosphate dehydrogenase from Corynebacterium glutamicum ATCC13032 (Corynebacterium glutamicum ATCC13032).
T1 construct: also called Zwf gene product; 60 kDa protein
T1 chain: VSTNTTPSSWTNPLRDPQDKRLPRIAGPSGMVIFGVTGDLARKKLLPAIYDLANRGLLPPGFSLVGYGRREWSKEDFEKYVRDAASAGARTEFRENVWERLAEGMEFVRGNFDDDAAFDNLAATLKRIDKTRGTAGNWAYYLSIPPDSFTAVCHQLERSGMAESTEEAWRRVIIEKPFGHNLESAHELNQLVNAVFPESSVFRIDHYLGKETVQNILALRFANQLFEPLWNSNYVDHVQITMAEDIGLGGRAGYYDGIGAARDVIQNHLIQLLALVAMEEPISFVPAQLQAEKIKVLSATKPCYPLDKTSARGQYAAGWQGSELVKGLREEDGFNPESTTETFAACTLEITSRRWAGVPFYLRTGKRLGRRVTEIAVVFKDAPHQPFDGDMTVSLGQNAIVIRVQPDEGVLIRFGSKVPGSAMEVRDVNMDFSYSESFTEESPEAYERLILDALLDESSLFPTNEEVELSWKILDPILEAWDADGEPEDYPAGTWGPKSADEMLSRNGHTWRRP
The assay is described as follows: co-purification over DEAE, Red-Sepharose and 2'5'-ADP-sepharose and gel filtration (Superdex G200pg); SDS-PAGE.

B1: OpcA sub-unit (OpcA protein) of glucose 6-phosphate dehydrogenase from Corynebacterium glutamicum ATCC13032 (enzyme)
chain: MIFELPDTTTQQISKTLTRLRESGTQVTTGRVLTLIVVTDSESDVAAVTESTNEASREHPSRVIILVVGDKTAENKVDAEVRIGGDAGASEMIIMHLNGPVADKLQYVVTPLLLPDTPIVAWWPGESPKNPSQDPIGRIAQRRITDALYDRDDALEDRVENYHPGDTDMTWARLTQWRGLVASSLDHPPHSEITSVRLTGASGSTSVDLAAGWLARRLKVPVIREVTDAPTVPTDEFGTPLLAIQRLEIVRTTGSIIITIYDAHTLQVEMPESGNAPSLVAIGRRSESDCLSEELRHMDPDLGYQHALSGLSSVKLETV
notes: also called OpcA gene product; 30 kDa protein
As for B1, the binding result is given as “binds”.
